67 sequences from the supplement of paper PMC10126150 can be followed below.

± gives the standard deviation of the averaged measurements.
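Note: ATP exposure 15 min at 22 °C before imaging.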

For the data set, the system named is ATP. Nature of the data set: switch fluorescence ratio, 500 uM ATP over buffer (Cy3 cluster intensity, sum of 5 cycles each) (fold (ratio)); higher = stronger signal-on switching upon ATP binding; sequences stand for … in TCGTCGGCAGCGTCAGATGTGTATAAGAGACAGTTTTTTTTTTTTTTTTTTTTTTTTT…TC. As to conditions: aptamer strand: ATP DNA aptamer (quencher-CACCTGGGGGAGTATTGCGGAGGAAGG + anchor), 100 nM annealed; ATP concentration: 500 uM. The essentials:
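Between each of five buffer/ATP cycles, the flow-cell was stripped with NaOH and re-annealed. Each cycle imaged Cy3-labelled switching-strand clusters, annealed to 100 nM quencher-labelled ATP aptamer on a modified Illumina MiSeq flow-cell, first in selection buffer and then after 15 min with 500 uM ATP at 22 °C. The fluorescence ratio is summed target-cycle over summed buffer-cycle Cy3 intensity per cluster, averaged per switch-domain sequence, with clusters outside 100-1000 RFU excluded.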
Take CGTCGGGAAT: the switch fluorescence ratio turned out to be 1.35 ± 0.051. The same measure for CTGTGCAAGT: 1.47 ± 0.073; for CCAAAAAAGG: 0.9625 ± 0.005; for GGCTCTTATT: 1.009 ± 0.0057. The same measure for AATAAAGACG: 0.952 ± 0.025. The same measure for AAATATTGGG: 0.98 ± 0.068. Turning to TAGGTTTTCG, the switch fluorescence ratio amounted to 0.98974 ± 0.00052. On to CTGTGTTGTG, for which the switch fluorescence ratio was determined as 0.998 ± 0.015.

On to TGCTGTGTAC, for which the switch fluorescence ratio was 1.084 ± 0.0095. With AAGAGTCGGG, the switch fluorescence ratio came to 0.972 ± 0.051.

On to CGTGTGAGAC, for which the switch fluorescence ratio came to 1.02 ± 0.014. The same measure for ACGGAGGGGT: 1.14 ± 0.13. The same measure for TTTTTTGAAG: 0.997 ± 0.03. For GAAGAACTGG the value was 0.991 ± 0.054; for GGCAGTGTAC, 1.18 ± 0.12; for ATCAGTTGTT, 1.0008 ± 0.00044. On to TGTTGGTTAG, for which the switch fluorescence ratio amounted to 0.989 ± 0.014.

Consider ATGTTTATGG, for which the switch fluorescence ratio was 0.987 ± 0.012. For TCGGGGCCGT the value was 0.971 ± 0.059; for TAAGGAAAGT, 0.991 ± 0.027.

Take TTCATTACGT: the switch fluorescence ratio is 0.996 ± 0.029. As for TAGAATTATC, the switch fluorescence ratio stood at 1.017 ± 0.0056. For GTTTTTTGTC the value was 1.03 ± 0.049; for AGAGGGCATG, 0.987 ± 0.026; for TTCAGGTTCT, 1 ± 0.04.

For the sequence GTTTTCTTAG, the switch fluorescence ratio came to 0.9737 ± 0.0031. For CAATTTGGGG the value was 0.994 ± 0.02; for TAGCCAAGGG, 0.994 ± 0.053; for AAGTGCGGGC, 1.04 ± 0.027. For TAACGACCGC, the switch fluorescence ratio worked out at 1.24 ± 0.03.

Regarding GGCAATATGG, the switch fluorescence ratio was found to be 1.229 ± 0.011. Take TTAGTATGCT: the switch fluorescence ratio was 0.9864 ± 0.0082. For GGGTTCTTGT the value was 1.04 ± 0.057; for GGTTGTAGGC, 1.02 ± 0.017; for CAGGGAGACG, 1.12 ± 0.047.

As to AGGGCAATGG, the switch fluorescence ratio turned out to be 1.29 ± 0.38.

For the sequence CAATTTCAGC, the switch fluorescence ratio is 0.999 ± 0.025. For GACTGTTCGG the value was 0.985 ± 0.025.

Consider CCGGGGCTTT, for which the switch fluorescence ratio amounted to 1.17 ± 0.021. The same measure for CTTTATAGGA: 0.9944 ± 0.0056; for AAAGATCGTT: 0.9799 ± 0.0055. As for CGGGTGAGTT, the switch fluorescence ratio was 1.15 ± 0.25. Take ACTGGGCTGT: the switch fluorescence ratio stood at 1.06 ± 0.062. With CATGTGGGTG, the switch fluorescence ratio worked out at 1 ± 0.047.

As to AAAACTCTGT, the switch fluorescence ratio worked out at 1.04 ± 0.015. With GTGGGGGTCG, the switch fluorescence ratio turned out to be 0.98 ± 0.075. For ATTGGTAAGG the value was 0.995 ± 0.025. Consider GATTGGTGGG, for which the switch fluorescence ratio came to 1.003 ± 0.0041. For TCGAGGGAGT the value was 1.02 ± 0.028; for TGCGGCTG, 1.05 ± 0.039. The same measure for TCGGGGGTCG: 0.954 ± 0.097; for GCGTTGGGGC: 1 ± 0.054. For the sequence GCAGGGGGAA, the switch fluorescence ratio worked out at 1.08 ± 0.053. The same measure for ACTCTTGCTT: 1.072 ± 0.0046; for CATTAAAGAT: 1.01 ± 0.077; for TGTTTAGGAG: 1.014 ± 0.0078. The same measure for TGTTCATATA: 1.01 ± 0.021; for GAGTGAGCAG: 0.976 ± 0.022. For CCAGGCTTAA, the switch fluorescence ratio was 1.06 ± 0.036. For GGGATGTGCG the value was 1.04 ± 0.027; for TTGGTATGGG, 1.03 ± 0.044; for CGGGGGATT, 1.03 ± 0.02. For TTAAAAGGG the value was 0.9979 ± 0.007; for TCTAGTCCGA, 1.003 ± 0.009. Regarding GATGCGGGAG, the switch fluorescence ratio is 1.0227 ± 0.00027.

On to CCGTGGGATG, for which the switch fluorescence ratio was found to be 0.986 ± 0.031. The same measure for CCTAGGATTC: 1.01 ± 0.043.
